According to the nanobody polyreactivity screen of Harvey et al. (2022):

Assay: yeast display, Sf9 membrane polyspecificity reagent, FACS + sequencing; frameworks hold sequencing errors
Method in brief: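 Nanobodies from a synthetic yeast display library (Saccharomyces cerevisiae BJ5465), induced 36–48 hours with galactose, were stained 1 hour at 4 °C with 10% biotinylated, detergent-solubilized Sf9 membrane reagent, enriched on streptavidin microbeads, then FACS-sorted. Anti-HA (expression) and streptavidin (reagent binding) fluorescence set low and high (top ~1%) gates. Polyreactivity labels come from the gate of origin. Genes were colony-PCR amplified, MiSeq 2 × 250 sequenced and filtered by CDR length.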

Sequence | polyreactivity (PSR sort gate)
QVQLVESGGGLDQAGGSLRLSCAASGLTFDANAMGWYRQAPGKERELVAAISSGGSTYADSVKGRFTISRDNAKNTVYLQMNSLKPEDTAVYYCNAVSIDVIQGDYNYWGQGTQVTVSS | low polyreactivity
QVQLVESGGGLVQAGGSLRLICAASGFIFWFYAMGWYRQAPGKERELVASISASGGSTNYADSVKGRFTISRDKAKNTVYLQMNSLKPEDTAVYYCAARKRYQRGYWGQGTQVTVSS | high polyreactivity
QVQLVESGGGLVQAGGSLRLSCAASGSIFGYYSMGCYRQAPGKERELVATITFGGGSTYYADSVKGRFTISRDNAKNTVYLQMNSLKPEDTAVYYCAADSGYLGFYGDEYSWGQGTQVTVSS | low polyreactivity
QVQLVESGGGLVQAGGSLRLICAASGLTFTPNAMGWYRQAPWKEREFVAAITWRGGRTYYADSVKGRFTISRDNAKNTVYLQMNSLKPEDTAVYYCAVTYRPTDQLDYWGQGTQVTVSS | high polyreactivity
QVQLVESGGGLVQAGGSLRLSCAASGRIFDLNTMGWYRQAPGKERELVAAISSGGSTYYADSVKGRFTISRDNAKNTVYLQMNSLKPEDTAVYYCAADKIRGYRIRMYWGQGTQVTVSS | low polyreactivity
QVQLVESGGGLVQAGGSLRLSCAASGRITYYAMGWYRQAPGKERELVAAITWSGGRTYYADSVKGRFTISRDNAKNTVYLQMNSLKPEDTAVYYCAKTRIYSKHWTEPYFYRVDSWGQGTQVTVSS | high polyreactivity
QVQLVESGGGLVQAGGSIRLSCAASGRIFIYNVMGWYRQAPGKERELVATISTGGTTNYADSVKGRFTISRDNAKNTVYLQMNSLKPEETAVYYCIRGSGYWYLPAVKYDHWGQGTQVTVSS | low polyreactivity
QVQLVESGGGLVQAGGRLRLSCAASGFIFGTYTMGWYRQAPGKERELVAAITNGGSTYADSVKGRFTISRDNAKNTVYLQMISLKPEDTAVYYCAADYRGHSGAWYDYWGLGTQVTVSS | low polyreactivity
QDQLVESGGGLVQAGGSLRVSCAASGSVFLVNAMGWYRQAPGKERELVAIDGSGGSTYADSVKGRFTISRDNAKNTVYLQMNILKPEDTAVYYCAKDQEGPLYDYWGQGTQVTVSS | low polyreactivity
QVQLVESGGGLVQAGGSLRLSCAASGSIFGRYAMGWYRQAPGKESELVAAISANGGSTYYADSVKGRFTISRDNAKNTVYLQMNSLKPEDTAVYYCAAGSTRGYKLGYWGQGTQVTVSS | high polyreactivity
QVQHVESGGGLGQAVGSLRLSCAASGFTFARNAMGWDRQAPGQERELVAAISSSGAGTYYADSVKGRFTISRDNSKNTVYLQMNSLKPEDTAVYYCAAYSWKGYDYWGQGTQVTVSS | high polyreactivity
QVQLVESGGGLVQAGGSLRLSCAASGRIFVSNDMGWYSQAPGKERELVAAISWSDDSTHYADSVKGRLTISRDNAKNTVYLQMNSLKPEDTAVYYCNKQRYYSTWRYDYWGQGTQVTVSS | low polyreactivity
QVQHVESGGGLVQAGGSLRLSCAASGFIFPYYDMGWYRQAPGKEREFVAAITKSGGRTYYADSVKGRFTISRDNAKNPVYLQMNSLKPEDTAVYYCAAEPDTYWYTYDYWGQGTQVTVSS | low polyreactivity
QVQLVESGGGLVQAGGSLRLSCAASGRIFPVYAMGWYRQAPGKERELVAAIRRTGGSTYYADSVKGRFTISRDNAKNTVYLQLNRLKPEDTAVYYCSVSSQPPLSRYGRFGVGYWGQGTQVTVSS | high polyreactivity
QVQLVESGGGLVQAGGRLRLSCAASGRIISHYAMGWYRQAPGKEWELVAAISRSGGSTYYADSVKGRFTLSRDNAKNTVYLQMNSLKPEDTAVYYCAARSWPNIRCHDYWGQGTQVTVSS | high polyreactivity
QVQLVESGGGLVQAGGSLRLSCAASGNIFKVYVMGGSRQAPGKERELVAAISGSGGSTYYADSVKGRFTISRDNAKTTVYLQMNSLKPEDTSVYYCNKVFKVTAARSFGYWGQGTQVTVSS | low polyreactivity
QVELVESGGGLVQAGGSLRLSCAASGSIFTVYAMGWYRQAPGKERELVAAISSSGGRTYYADSVKGRFTISRDNAKNTVYLQMNSLKPEDTAVYYCNTGPGQSFRYNYWGQGTQVTVSS | high polyreactivity
QVQLVESGGGLVQAGGSLRLSCAASGSIFLQYTMGWYRQAPGKERELVAAITESDGSTYYADSVKGRFTISRDNAKNTVYLQMNSLKPEDTAVYYCAADVVYFKYWDKYDYWGQGTQVTVSS | low polyreactivity
QEHLQESGGGLVQAGGDLRLSSPSSGNIFRDYISGCYRQAPGKEREFAAGIDRGANTNYADSVKGRFTISRDNAKNTVYLQMISLKPVDTAVYYCGVHTAIVPEFIYWGQGTQVTVSS | low polyreactivity
QVQLVESGGGLVQAGGRLRLSCAASGFIFGAYAMGWYRQAPGKERELVAAINWSGGSTYYADSVKGRFTISRDNAKNTVYLQMNSLKPEDTAVYYCNARYNGFYAYPRHDYWGQGTQVTVSS | low polyreactivity
QVQLVESGGGLVQAGGSLRLSCAASGFIFFINDMGWYRQAPGKERELVAAISWSGGSTYYADSVKGRFTLSRDNAKNTVYLQMNSLKPEDTAVNYCNTDVPTAQYDYWGQGSQVTVSS | low polyreactivity
QVQLVESGGGLVQAGGSLRLSCAASGSTIYFNAMGRYRQAPGKERELAAGIRSSGGSTYYADSVKGRFTISRDNAKNTVYLQMISLKPEDTAVYYCAGVRYRELYWGQGTQVTVSS | high polyreactivity

Sequence | polyreactivity (PSR sort gate)
QVQLVESGVGLVQAGGSLRLSCAASGRIFNRNAMGWYRQAPGKERELVAAISHSVGSTYADSVKGRFTLSRDNAKNTVYLQMNSLKPEDTAVYYCAAKYYFEWNSALDYWGQGTQVTVSS | low polyreactivity
QVQLVESGGGLVQAGGSLRLSCAASGRIFDPYTMGWYRQAPGKERELVAAISGRTGRTYYADSVKGRFTISRDNAKNTVYLQMNSLKPEDTAVYYCNAVRYVVLPGGPKFDYWGQGTQVTVSS | high polyreactivity
QVQLVESGGGLVQAGGSLRLSCAASGFTFDYYTMGWYRQAPGKEREFVAAITWNGGTTNYADSVKGRCTISRDNAKNTVYLQMNSLKPEDTALYYCADTAYWYFSNDSGRSYDYWGQGTQVTVSS | low polyreactivity
QVQLVESGGGLVQAGGSLRLSCAASGSIFSSNAMGWYRQAPGKERELVAAITRGGRTTYADSVKGRFTISRDNAKNTVYLQMNSLKPEDTAVYYCNAESYLTGWWVDYWGQGTQVTVSS | low polyreactivity
QVQLVESGGGLVQEGGSLRLSCAASGLTFSPYAMGWYRQAPGKERELVATITIGGSTKYADSVKGRFTISRDNAKNTVYLQMNSLKPEDTAVYYCAVRSGYVTRRYDYWGQGTQVTVSS | low polyreactivity
QVQLVESGGGLVQAGGSLRLSCAASGFTFPKYAMGWYRQAPGKERELVAAISYRGGSTYYADSVKGRFTISRDNAKNTVYLQMNSLKPEDTAVYYCAAEIPHAPYEYWGQGTQVTVSS | high polyreactivity
QVQLVESGGGLVQAGGSLRLSCAASGFIFTKYVMGWYRQAPGKERELVAAISSGGGRTYYADSVKGRFTISRDNGKYTVYLQMNSQKPEDTAVYYCNIDDERGKLYYWGQGTQVTVSS | high polyreactivity
QVQLVESGGGLVQAGGSLRLSCAASGLTFPYYDMGWYRQAPGKERELVATITISGRTNYADSVKGRFTISRDNAKNTVYLQMNSLKPEDTAVYYCNARYRGRVYDRFGYWGQGTQVTVSS | high polyreactivity
QVQLVESGGGLVLAGGSLRLRCAASGRIFGQYTMGWYRQAPGKERELVAAISRSSSSKYADSVKRRFTISRDNAKNTGYLQMNSLKPEDTAVYYCAAYVYYYGGRTYDYWGQGTQLTVSS | high polyreactivity
QVQLVESGGGLVQAGGSLRLSCAASGSIFPYNDMGWYRQAPGKERELVARITNGGSTNYADSVKGRFTISRDNAKNTVYLQMNSLKPEDTAVYYCNKDGTQEFAPDGHEYWGQGTQVTVSS | low polyreactivity
QVQLVESGGGLVQAGGSLRLSCAASGRTFYRYAMGWYRQAPGKERELVAAISRSGTTYYADSVKGRFTISRDNAKNTVYLQMNSLKPEDTAVYFCAAKPAGRQRGGDYWGQGTQVTVSS | high polyreactivity
QVQLVESGGGLVQAGGSLRLSCAASGYTFSYYAMGWYRQAPGKERELVAAINYSGGRTYYADSVKGRFTISRDNAKHTVYLQMNSLKPEDSAVDYCAARGGFGMDYWGQGTQVTVSS | high polyreactivity
QDQLVESGGGLVQAGGSLSLSCAASGRIFRGNAMGWYRQAPGKERELVASITWRGTSTYYADSVKGRFTISRDNAKNTVYLQMNSLKPEDTAVYYCAASLYSWGQGTEVTVSS | high polyreactivity
QDQLVESGGGLVQAGGSLRLSCAASGSIFPVYDMGWSRQAPGTEREMVAAISVSGGSTYYADSVKGRFTISRDNAKNTVYLQMKSLKPEDTAVYYCIADVHLYWYWYYEREDYWGQGTQVTVSS | low polyreactivity
QVQLVESGGGLVQSGGSLRLSCAASGRTFYDNVMGWYRQAPGKERELVAAISSGGSTNYADSVKGRFTISRDNAKNTVYLQMNSLKPEDTAFYYCATIGGGGWAYEYWGQGTQVTVSS | low polyreactivity
QVQLEESGGGLVQAGGSLRLTCAPSGTTFSRYVMGWYRQAPGKERELVAAINRSSGSTYYADSVKGRFTISRDNAKNTVYLQMNSLKPEDTAVYYCAALYRKRGSVQYDYWGQGTQVTVSS | high polyreactivity
QVQVVESGGGLVQAGGSLRLSCAASGINFLTNAMGWYRQAPGKERELVAAISQSGGSTYYADSVKGRFTISRDHAKNTVYLQMNSLKPEDTAVYYCAAPQRYPRFYYWGQGTQVTVSS | high polyreactivity
QVQLVESGGGLVQARGSLRLSCAASGSTFDYYAMGWYRQAPGKEWELVAAIDTSGDDTYYADSVKGRFTISRDNAKNTVYLQMNSLKPEDTAVYYCAADFPYDEVDYWGQGTQVTVSS | low polyreactivity
QVQLVESGGGLDQAGGSLRLSCAASGITFVWNAMGWYRQAPGKERELVATISRGGVRTYYADSVKGRFTISRDNAKNTVYLQMNSLKPEDTAVYYCNKTTLLTVEYDYWGQGTQLTVSS | low polyreactivity
QVQLVESGGGLVQAGGSLRLSCAASVRTFEGYAMGWDRQEPGKERELVAAISKSGGRTYYADSVKGRFTISRDNAKNTVYLQMNSLKPEHTAVYYCAARVSSGSNSDYWGQGTQVTVSS | high polyreactivity
QVQLVESGGGLVQAGGSLRLSCDASGLIFYDNMGWYRQAPGKERELVAAISSSGGSTSYADSVKGRFTISRDNAKNTVYLQMNSLKPEDTAVYYCAAELGYIGSYYWIYYYWGQGTQGTVSS | low polyreactivity
